Experimental data reported in paper PMC10397247.

Key:
[1] = molecular target: T1, P3A-bS; experiment: two-hybrid library CCNG1;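 note: natural log of median RNA to DNA barcode read ratio; higher means stronger binding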
T1 chain: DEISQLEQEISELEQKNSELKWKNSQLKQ

[2] = molecular target: T2, P7A-bS; experiment: two-hybrid library CCNG1;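 note: natural log of median RNA to DNA barcode read ratio; higher means stronger binding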
T2 chain: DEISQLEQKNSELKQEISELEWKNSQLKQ

[3] = molecular target: T3, P6A-bS; experiment: two-hybrid library CCNG1;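 note: natural log of median RNA to DNA barcode read ratio; higher means stronger binding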
T3 chain: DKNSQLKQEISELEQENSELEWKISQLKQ

[4] = molecular target: T4, P5A-bS; experiment: two-hybrid library CCNG1;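 note: natural log of median RNA to DNA barcode read ratio; higher means stronger binding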
T4 chain: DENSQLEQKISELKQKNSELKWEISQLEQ

[5] = molecular target: T5, P1A-bS; experiment: two-hybrid library CCNG1;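 note: natural log of median RNA to DNA barcode read ratio; higher means stronger binding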
T5 chain: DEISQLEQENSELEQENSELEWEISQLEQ

[6] = molecular target: T6, P2A-bS; experiment: two-hybrid library CCNG1;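 note: natural log of median RNA to DNA barcode read ratio; higher means stronger binding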
T6 chain: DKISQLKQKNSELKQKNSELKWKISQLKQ

[7] = molecular target: T7, P4A-bS; experiment: two-hybrid library CCNG1
T7 chain: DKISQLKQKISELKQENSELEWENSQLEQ

[8] = molecular target: T8, P8A-bS; experiment: two-hybrid library CCNG1
T8 chain: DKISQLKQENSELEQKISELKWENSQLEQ

[9] = molecular target: T9, P9A-bS; experiment: two-hybrid library CCNG1
T9 chain: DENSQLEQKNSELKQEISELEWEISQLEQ

[10] = molecular target: T10, 4H741-bN; experiment: two-hybrid library CCNG1
T10 chain: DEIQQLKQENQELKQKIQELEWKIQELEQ

[11] = molecular target: T11, 4H492-bN; experiment: two-hybrid library CCNG1
T11 chain: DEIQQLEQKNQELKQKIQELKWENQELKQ

[12] = molecular target: T12, 4H796-bA; experiment: two-hybrid library CCNG1
T12 chain: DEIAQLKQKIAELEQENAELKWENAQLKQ

[13] = molecular target: T13, APC232-AA; experiment: two-hybrid library CCmax; conditions: mean of both orientations
T13 chain: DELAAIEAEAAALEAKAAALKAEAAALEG

[14] = molecular target: T14, APC3645-AA; experiment: two-hybrid library CCmax; conditions: mean of both orientations
T14 chain: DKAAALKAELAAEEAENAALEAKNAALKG

[15] = molecular target: T15, APC1015-AA; experiment: two-hybrid library CCmax; conditions: mean of both orientations
T15 chain: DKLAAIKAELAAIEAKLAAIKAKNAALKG

[16] = molecular target: T16, APC4264-AA; experiment: two-hybrid library CCmax; conditions: mean of both orientations
T16 chain: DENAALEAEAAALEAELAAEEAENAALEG

[17] = molecular target: T17, APC5383-AA; experiment: two-hybrid library CCmax; conditions: mean of both orientations
T17 chain: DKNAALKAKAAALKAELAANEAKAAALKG

[18] = molecular target: T18, 4H716-AA; experiment: two-hybrid library CCmax; conditions: mean of both orientations
T18 chain: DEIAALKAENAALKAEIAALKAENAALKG

[19] = molecular target: T19, APC8191-AA; experiment: two-hybrid library CCmax; conditions: mean of both orientations
T19 chain: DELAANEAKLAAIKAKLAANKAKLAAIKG

[20] = molecular target: T20, APC2237-AA; experiment: two-hybrid library CCmax; conditions: mean of both orientations
T20 chain: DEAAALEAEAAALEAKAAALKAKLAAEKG

[21] = molecular target: T21, APC4436-AA; experiment: two-hybrid library CCmax; conditions: mean of both orientations
T21 chain: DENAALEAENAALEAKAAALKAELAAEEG

[22] = molecular target: T22, APC4011-AA; experiment: two-hybrid library CCmax; conditions: mean of both orientations
T22 chain: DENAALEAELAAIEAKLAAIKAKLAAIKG

[23] = molecular target: T23, APC9096-AA; experiment: two-hybrid library CCmax; conditions: mean of both orientations
T23 chain: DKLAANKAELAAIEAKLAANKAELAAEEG

[24] = molecular target: T24, APC2405-AA; experiment: two-hybrid library CCmax; conditions: mean of both orientations
T24 chain: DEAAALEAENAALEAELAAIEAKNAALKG

[25] = molecular target: T25, APC9319-AA; experiment: two-hybrid library CCmax; conditions: mean of both orientations
T25 chain: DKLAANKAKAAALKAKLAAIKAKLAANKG

[26] = molecular target: T26, 4H807-AA; experiment: two-hybrid library CCmax; conditions: mean of both orientations
T26 chain: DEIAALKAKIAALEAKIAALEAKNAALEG

[27] = molecular target: T27, 4H3330-AA; experiment: two-hybrid library CCmax; conditions: mean of both orientations
T27 chain: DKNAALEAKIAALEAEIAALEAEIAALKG

[28] = molecular target: T28, APC1434-AA; experiment: two-hybrid library CCmax; conditions: mean of both orientations
T28 chain: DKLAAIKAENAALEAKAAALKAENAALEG

[29] = molecular target: T29, APC7099-AA; experiment: two-hybrid library CCmax; conditions: mean of both orientations
T29 chain: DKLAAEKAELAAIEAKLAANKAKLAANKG

[30] = molecular target: T30, APC8910-AA; experiment: two-hybrid library CCmax; conditions: mean of both orientations
T30 chain: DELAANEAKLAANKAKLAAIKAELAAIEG

[31] = molecular target: T31, 4H2447-AA; experiment: two-hybrid library CCmax
T31 chain: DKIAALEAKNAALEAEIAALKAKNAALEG

[32] = molecular target: T32, 4H733-AA; experiment: two-hybrid library CCmax; conditions: mean of both orientations
T32 chain: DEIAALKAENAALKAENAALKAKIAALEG

[33] = molecular target: T33, 4H2458-AA; experiment: two-hybrid library CCmax; conditions: mean of both orientations
T33 chain: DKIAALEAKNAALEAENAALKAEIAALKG

[34] = molecular target: T34, APC6108-AA; experiment: two-hybrid library CCmax; conditions: mean of both orientations
T34 chain: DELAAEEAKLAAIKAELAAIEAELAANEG

[35] = molecular target: T35, 4H457-bH; experiment: two-hybrid library CCNG1
T35 chain: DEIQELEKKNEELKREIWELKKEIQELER

[36] = molecular target: T36, 4H2627-bH; experiment: two-hybrid library CCNG1
T36 chain: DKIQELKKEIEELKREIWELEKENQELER

[37] = molecular target: T37, 4H2673-bH; experiment: two-hybrid library CCNG1
T37 chain: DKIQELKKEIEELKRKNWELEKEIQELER

[38] = molecular target: T38, 4H2702-bH; experiment: two-hybrid library CCNG1
T38 chain: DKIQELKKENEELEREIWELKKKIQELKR

[39] = molecular target: T39, 4H754-bH; experiment: two-hybrid library CCNG1
T39 chain: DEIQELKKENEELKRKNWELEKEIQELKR

[40] = molecular target: T40, 4H3427-bH; experiment: two-hybrid library CCNG1
T40 chain: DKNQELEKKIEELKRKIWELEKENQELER

[41] = molecular target: T41, 4H346-bH; experiment: two-hybrid library CCNG1
T41 chain: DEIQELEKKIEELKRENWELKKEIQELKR

[42] = molecular target: T42, 4H953-bH; experiment: two-hybrid library CCNG1
T42 chain: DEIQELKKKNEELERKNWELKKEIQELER

[43] = molecular target: T43, 4H2586-bH; experiment: two-hybrid library CCNG1
T43 chain: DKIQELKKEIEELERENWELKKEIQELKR

[44] = molecular target: T44, 4H3926-bH; experiment: two-hybrid library CCNG1
T44 chain: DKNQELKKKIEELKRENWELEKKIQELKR

[45] = molecular target: T45, 4H855-bH; experiment: two-hybrid library CCNG1
T45 chain: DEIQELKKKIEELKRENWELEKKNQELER

[46] = molecular target: T46, 4H3112-bH; experiment: two-hybrid library CCNG1
T46 chain: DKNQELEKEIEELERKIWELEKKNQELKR

[47] = molecular target: T47, 4H780-bH; experiment: two-hybrid library CCNG1
T47 chain: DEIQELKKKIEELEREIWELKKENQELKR

[48] = molecular target: T48, 4H1831-bH; experiment: two-hybrid library CCNG1
T48 chain: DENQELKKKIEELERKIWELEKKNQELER

[49] = molecular target: T49, 4H3010-bH; experiment: two-hybrid library CCNG1
T49 chain: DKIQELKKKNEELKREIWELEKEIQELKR

[50] = molecular target: T50, 4H797-bH; experiment: two-hybrid library CCNG1
T50 chain: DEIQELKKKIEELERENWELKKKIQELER

[51] = molecular target: T51, 4H170-bH; experiment: two-hybrid library CCNG1
T51 chain: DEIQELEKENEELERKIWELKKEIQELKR

[52] = molecular target: T52, 4H4073-bH; experiment: two-hybrid library CCNG1
T52 chain: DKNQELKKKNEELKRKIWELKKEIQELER

[53] = molecular target: T53, 4H968-bH; experiment: two-hybrid library CCNG1
T53 chain: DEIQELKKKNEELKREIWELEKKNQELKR

[54] = molecular target: T54, 4H683-bH; experiment: two-hybrid library CCNG1
T54 chain: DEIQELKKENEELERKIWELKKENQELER

[55] = molecular target: T55, 4H575-bH; experiment: two-hybrid library CCNG1
T55 chain: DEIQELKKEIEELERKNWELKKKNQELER

[56] = molecular target: T56, 4H918-bH; experiment: two-hybrid library CCNG1
T56 chain: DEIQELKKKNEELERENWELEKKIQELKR

DEISQLEQENSELEQENSELEWEISQLEQ [P1A-bS] gave an interaction score [1] of -0.598, an interaction score [2] of -1.96 and an interaction score [3] of 0.0466. It also gave an interaction score [4] of -0.939, an interaction score [5] of -0.982 and an interaction score [6] of 1.9. It also gave an interaction score [7] of -0.182, an interaction score [8] of -0.899 and an interaction score [9] of -1.08.

DEIQQLEQKNQELKQKIQELKWENQELKQ [4H492-bN] was tested, and the interaction score [10] was -0.326, the interaction score [11] was -0.118 and the interaction score [12] was 0.0979. It also gave an interaction score [5] of -1.07.

With DKIAALEAKNAALEAEIAALKAKNAALEG [4H2447-AA] the interaction score [13] was -1.82, the interaction score [14] was -1.7 and the interaction score [15] was -2.05. The interaction score [16] was -1.6, the interaction score [17] was -1.8 and the interaction score [18] was -1.36. The interaction score [19] was -1.38, the interaction score [20] was -1.38 and the interaction score [21] was -1.79. The interaction score [22] was -0.716, the interaction score [23] was -1.78 and the interaction score [24] was -1.12. It also gave an interaction score [25] of -1.75, an interaction score [26] of -1.69 and an interaction score [27] of -0.798. For the same binder, the interaction score [28] was -1.56, the interaction score [29] was -1.5 and the interaction score [30] was -1.68. It also gave an interaction score [31] of 1.72, an interaction score [32] of -1.83 and an interaction score [33] of -1.42. It also gave an interaction score [34] of -1.28.

DEIQELEKENEELERKIWELKKEIQELKR [4H170-bH] was tested, and the interaction score [35] was 1.82, the interaction score [36] was 0.774 and the interaction score [37] was -0.0221. For the same binder, the interaction score [38] was 1.84, the interaction score [39] was 1.02 and the interaction score [40] was 0.596. It also gave an interaction score [41] of -0.205, an interaction score [42] of 0.0231 and an interaction score [43] of -1.02. It also gave an interaction score [44] of 0.549, an interaction score [45] of -0.762 and an interaction score [46] of 0.343. The interaction score [47] was -0.492, the interaction score [48] was -0.0127 and the interaction score [49] was 2.38. It also gave an interaction score [50] of 0.264, an interaction score [51] of 0.761 and an interaction score [52] of 1.14. For the same binder, the interaction score [53] was 1.47, the interaction score [54] was -0.173 and the interaction score [55] was -1.59. It also gave an interaction score [56] of 0.183.
